# B1: Phage tail tube protein from Siphoviridae SPR, His6-SUMO-tagged (natural protein, Siphoviridae SPR (phage))
# chain: MKTVIQDTADVYFKRKSDGKLVFTAEAQTASFSQAISEEKLRGGIGNKPLYILKSEKEINLTVKNAFFDLEWLAMTQGETIQEETKVKVFDREHGLIVDDTNKVTLKGKPVSDVTFYNKKGLTYKIAVSTDGTYTIPTAFAAAKDKLTAVYQIEKVGRRLAIKASKFSERYEVEYRTIAYNPDTEEVYSDIYIQFPNVSPSGEFEMSLENGNALAPEIKFEALADTDTDEMAVVIEASRDENTAAPVEDTTGSTQSSDLGGTTE
# notes: Purified alone it is a hexamer and filaments of hexamers; in the complex with DSR2^H171A it is a monomer at each corner (4:4); The methods say that His6-SUMO-Tube was purified directly, without removal of the tag; also called His6-SUMO-Tube; HisSUMO-Tube; source: E. coli BL21(DE3); not shown: His6, N-terminal, kept; SUMO, N-terminal, kept
# Columns and labels:
# [1] = molecular target: Bacillus subtilis DSR2, wild type, co-expressed with His6-SUMO-DSAD1 (Bacillus subtilis); experiment: cryo-EM structure; DSR2-DSAD1 complex co-expressed and purified, 1.2 mg/mL; 3.49 Å after focus refinement
# [2] = molecular target: DSAD1 (DSR anti-defense 1) from Siphoviridae SPbeta, His6-SUMO-tagged, co-expressed with DSR2 (Siphoviridae SPbeta (phage)) (UniProt Q796A8); experiment: as above
# [3] = molecular target: the molecule itself; experiment: cryo-EM structure; apo DSR2 tetramer, 1.5 mg/mL, 4.15 Å after focus refinement
# [4] = molecular target: the molecule itself; experiment: SEC; oligomeric state of purified DSR2, its mutants and the DSR2^H171A-Tube complex; Superdex 200 Increase 10/300 GL, 25 mM Tris-HCl pH 7.5, 150 mM NaCl
# [5] = molecular target: B1; experiment: cryo-EM structure; DSR2^H171A-Tube complex co-expressed and purified, 2 mg/mL, 1 mM NAD+ added; 3.58 Å, local refinement 3.08 Å; conditions: both partners purified
# [6] = molecular target: the molecule itself; experiment: SEC + other: cryo-EM 2D class averages; purified His6-SUMO-Tube alone
molecule,measurement,setting,value
"Bacillus subtilis DSR2, wild type, co-expressed with His6-SUMO-DSAD1 (enzyme)",stoichiometry N,[1],4
same,stoichiometry N (DSAD1:DSR2 (2:4)),[2],0.5
"Bacillus subtilis DSR2 (defense-associated sirtuin 2), wild type, His-tagged, purified alone (enzyme, UniProt P0DXN8 1-1005, looked up, Homo-tetramer by cryo-EM and SEC; Cloned into pCDFDuet (BamHI/XhoI); the methods call it His-tagged; also called apo DSR2; apo DSR2 tetramer; source: E. coli BL21(DE3), purified (Ni-NTA, gel filtration on Superdex 200 Increase)) MVKVDLESKRYGEKLKEVFLMLDNNVVECIKEITESSRNGKLVFFVGAGVSTLSDYPQWWRLVDKYHEELYGSPKKGNYSSDEYLRIPQIFYNVKGEMAFDGILKDFFQVDKPTNPIHDKILAMNPAHVITTNYDNLIDTACWKRGKYFSVISAEEDVANATSSRYLLKVHGDFRKGFKGENVVLKEDDYLNYDQNYPLISNLMKTIIATHTIVFIGYGLGDYNINMLLNWVRKLQKDSFHKPFFIRTDPSPIENETLIYYENKGLRIIDAASLIDSNEYDYLERYSAVMDLLIESQENKFITKDDEVIDYIYGKISPLFALQYIRKIDLKHVFEYDYHFEVNGTVVRHKNKGFGYMERFFELKESCDERSKLSKKQYERFNALFNFFEKNGVICMAKDAGTLNTSIEINSLAYHGKYDVMKKFIEEQSVSIEDDYKKAFFLACLGRWEESYDLYSNIILNSIDESNGCVYYLSQINRYRIYQSITQAVTQFNGLGLLTFGRHYKPFTDEFLARIEREMTNFNIDDLFNGMPFEFQKKYKILEFLSDNQFLYDDTVKLFELTNKVRSEMSEGSYSFGMSSDIVVLLRLYDNLRFLYENCLWSVSFHEFHQYIRNSMSLLIEKAEYERTRDIDELGFSFFGKKSGFFMEYYDFVNISRHFKIDDIKNLERSCSIDKIRFGEQEKIEEYLVGIAEEITKQFSANGMNVVFYTQFISEAKAALYFAKYVKLSEEGLGKIVKALLFYFPERDLDIGKRYVWLERLTKCNELPKSIISIIDDFLVLQAEKHIDQNYSEVSSNGLYSRDYGALIKHFEKNFISKRLSEITLCLTQDKQKQIDFLFKLLPLLSTNAKSHLLSFKSVENINDLMNGIRIGLIDEFTPEHEELIIEYLETRKVNYIVEKEKGIQTFSSNDYMSTFGIWYFLEEINNSKMEEFIGMDDQYDFFVDPENFDYKKFIPSWLKNYNDKLLGKIAGNKHMKHHVIEVLKERVKNSNDKRYLEILMNYFI",stoichiometry N,[3],4
"DSR2^I259S/Y260G (enzyme, Bacillus subtilis, UniProt P0DXN8 1-1005, looked up, Dimer by SEC; also called I259S/Y260G mutant; mutant with disruption at the tetrameric interface; source: E. coli BL21(DE3), purified by a protocol similar to that of the wild type) MVKVDLESKRYGEKLKEVFLMLDNNVVECIKEITESSRNGKLVFFVGAGVSTLSDYPQWWRLVDKYHEELYGSPKKGNYSSDEYLRIPQIFYNVKGEMAFDGILKDFFQVDKPTNPIHDKILAMNPAHVITTNYDNLIDTACWKRGKYFSVISAEEDVANATSSRYLLKVHGDFRKGFKGENVVLKEDDYLNYDQNYPLISNLMKTIIATHTIVFIGYGLGDYNINMLLNWVRKLQKDSFHKPFFIRTDPSPIENETLSGYENKGLRIIDAASLIDSNEYDYLERYSAVMDLLIESQENKFITKDDEVIDYIYGKISPLFALQYIRKIDLKHVFEYDYHFEVNGTVVRHKNKGFGYMERFFELKESCDERSKLSKKQYERFNALFNFFEKNGVICMAKDAGTLNTSIEINSLAYHGKYDVMKKFIEEQSVSIEDDYKKAFFLACLGRWEESYDLYSNIILNSIDESNGCVYYLSQINRYRIYQSITQAVTQFNGLGLLTFGRHYKPFTDEFLARIEREMTNFNIDDLFNGMPFEFQKKYKILEFLSDNQFLYDDTVKLFELTNKVRSEMSEGSYSFGMSSDIVVLLRLYDNLRFLYENCLWSVSFHEFHQYIRNSMSLLIEKAEYERTRDIDELGFSFFGKKSGFFMEYYDFVNISRHFKIDDIKNLERSCSIDKIRFGEQEKIEEYLVGIAEEITKQFSANGMNVVFYTQFISEAKAALYFAKYVKLSEEGLGKIVKALLFYFPERDLDIGKRYVWLERLTKCNELPKSIISIIDDFLVLQAEKHIDQNYSEVSSNGLYSRDYGALIKHFEKNFISKRLSEITLCLTQDKQKQIDFLFKLLPLLSTNAKSHLLSFKSVENINDLMNGIRIGLIDEFTPEHEELIIEYLETRKVNYIVEKEKGIQTFSSNDYMSTFGIWYFLEEINNSKMEEFIGMDDQYDFFVDPENFDYKKFIPSWLKNYNDKLLGKIAGNKHMKHHVIEVLKERVKNSNDKRYLEILMNYFI",stoichiometry N,[4],2
"DSR2^H171A, catalytic mutant, co-expressed with His6-SUMO-Tube (enzyme, Bacillus subtilis, UniProt P0DXN8 1-1005, looked up, source: E. coli BL21(DE3), co-expressed with His6-SUMO-Tube; in lysate (pull-down) and purified as the complex (Ni-NTA, Hitrap Q, gel filtration)) MVKVDLESKRYGEKLKEVFLMLDNNVVECIKEITESSRNGKLVFFVGAGVSTLSDYPQWWRLVDKYHEELYGSPKKGNYSSDEYLRIPQIFYNVKGEMAFDGILKDFFQVDKPTNPIHDKILAMNPAHVITTNYDNLIDTACWKRGKYFSVISAEEDVANATSSRYLLKVAGDFRKGFKGENVVLKEDDYLNYDQNYPLISNLMKTIIATHTIVFIGYGLGDYNINMLLNWVRKLQKDSFHKPFFIRTDPSPIENETLIYYENKGLRIIDAASLIDSNEYDYLERYSAVMDLLIESQENKFITKDDEVIDYIYGKISPLFALQYIRKIDLKHVFEYDYHFEVNGTVVRHKNKGFGYMERFFELKESCDERSKLSKKQYERFNALFNFFEKNGVICMAKDAGTLNTSIEINSLAYHGKYDVMKKFIEEQSVSIEDDYKKAFFLACLGRWEESYDLYSNIILNSIDESNGCVYYLSQINRYRIYQSITQAVTQFNGLGLLTFGRHYKPFTDEFLARIEREMTNFNIDDLFNGMPFEFQKKYKILEFLSDNQFLYDDTVKLFELTNKVRSEMSEGSYSFGMSSDIVVLLRLYDNLRFLYENCLWSVSFHEFHQYIRNSMSLLIEKAEYERTRDIDELGFSFFGKKSGFFMEYYDFVNISRHFKIDDIKNLERSCSIDKIRFGEQEKIEEYLVGIAEEITKQFSANGMNVVFYTQFISEAKAALYFAKYVKLSEEGLGKIVKALLFYFPERDLDIGKRYVWLERLTKCNELPKSIISIIDDFLVLQAEKHIDQNYSEVSSNGLYSRDYGALIKHFEKNFISKRLSEITLCLTQDKQKQIDFLFKLLPLLSTNAKSHLLSFKSVENINDLMNGIRIGLIDEFTPEHEELIIEYLETRKVNYIVEKEKGIQTFSSNDYMSTFGIWYFLEEINNSKMEEFIGMDDQYDFFVDPENFDYKKFIPSWLKNYNDKLLGKIAGNKHMKHHVIEVLKERVKNSNDKRYLEILMNYFI",stoichiometry N,[5],1 DSR2:Tube (4:4)
same,stoichiometry N,[4],4
B1,stoichiometry N,[6],6

# — PMC11087589, “Molecular basis of bacterial DSR2 anti-phage defense and viral immune evasion” (Nature Communications, 2024)
